Measurements taken from patent JP2010189402A (dated 2010).
Where a chain is given by its changes, count along the chain named. “And” between values parts separate entries of the source, which are not always exact repeats. Equal values may be shown once.

T1: ヒトCD20抗原 (human, UniProt P11836 1-297)
T1 construct: whole, on cells; Kd values were measured on Raji suspension cells that express CD20 naturally; also called CD20; ヒトCD20分子
T1 sequence (looked up): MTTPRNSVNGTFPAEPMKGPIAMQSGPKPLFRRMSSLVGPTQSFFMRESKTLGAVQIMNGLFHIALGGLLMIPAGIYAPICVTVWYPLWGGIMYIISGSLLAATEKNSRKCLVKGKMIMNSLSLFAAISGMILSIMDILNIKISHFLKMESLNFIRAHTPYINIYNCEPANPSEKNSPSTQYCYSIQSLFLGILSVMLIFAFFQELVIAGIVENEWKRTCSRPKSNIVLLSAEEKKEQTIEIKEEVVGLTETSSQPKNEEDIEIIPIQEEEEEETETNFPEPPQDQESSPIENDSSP

B1: ヒト化抗CD20モノクローナル抗体 hz1791-ff (antibody, V domains shown)
VH: QIQLVQSGSELKKPGASVKVSCKASGYTFTNFGVNWVKQAPGKGLKWMGWINTYTGEPSYADDFKGRFAFSLDASASTAYLQISSLKAEDMATYFCTRRTNYYGTSYYYAMDYWGQGTTVTVSS
VL: STVMTQSPSFLSASVGDRVTITCKASQSVSNDVAWYQQKPGQSPKVLIYFASNRYTGVPDRFSGSGYGTDFTLTISSLQAEDVAVYFCQQDYSSPLTFGAGTKLEIK
notes: also called ff; hz1791-ff34
B2: ヒト化抗CD20モノクローナル抗体 hz1791-sf (antibody, V domains shown)
VH: B1 VH
VL: STVMTQSPDSLAVSLGERATINCKSSQSNSNDVAWYQQKPGQSPKVLIYFASNRYSGVPDRFSGSGYGTDFTLTISSLQAEDVAVYFCQQDYSSPLTFGAGTKLEIK
notes: also called sf; hz1791-sf43
B3: ヒト化抗CD20モノクローナル抗体 hz1791-fv (antibody, V domains shown)
VH: B1 VH with S9P, V20I, A76V, M91T, A92S
VL: B1 VL
notes: also called fv; hz1791-fv10
B4: 抗CD20キメラ抗体 1k0924 (antibody, V domains shown)
VH: QVQLQQPGAELVKPGASVKMSCKASGYTFTSYNIHWVKQTPGQGLEWIGAIYPGNGDTSYNQKFKGKATLTSDKSSSTAYMQLSSLTSEDSAVYYCARMSTMITGFDYWGQGTTLTVSS
VL: QIVLSQSPAILSASPGEKVTMTCRASSSVSYMHWYQQRPGSSPKPWIYATSNLASGVPARFSGSGSGTSYYFTISRVEAEDAATYYCQQWNSNPPTHGGGTKLEIK
B5: 抗CD20キメラ抗体 1k1736 (antibody, V domains shown)
VH: QVQLQQPGAELVKPGASVKMSCKASGYTFTTYNLHWVKQTPGQGLEWIGGIYPGNGDTSYNQKFKVKATLTADKSSNTAYMQLSSLTSEDSAVYYCARWIYYGNYEGTLDYWGQGTSVTVSS
VL: B4 VL with A13S, H33L, R38K, K44E, S64G, Y71S, F72L, N91T, S92F, H97F
B6: 抗CD20キメラ抗体 1k1422 (antibody, V domains shown)
VH: QVQLQQPGAELVKPGASVKMSCRASGYTFTNYNMHWIKQTPGQGLEWIGAIYPGSGDTSYNRKFKGKATLTADTSSSTAYMQFSSLTSADSAVYYCARFTYYYGGTYGAMDYWGQGTSVTVSL
VL: QIVLTQSPPIMSASLGEEITLTCSASSRVSYMLWYQQKSGTSPKLLIYSTSNLASGVPSRFSGSGSGTFYSLTISSVEAEDAADYYCHQWTSNPCTFGGGTKLEIK
B7: 抗ヒトCD20マウスモノクローナル抗体 1k1712 (antibody, V domains shown)
VH: QVQLQQPGAELVKPGASVKMSCKASGFTFTSYNLHWVKQTPGQGLEWIGAIYPGSGDTSYNQQFKGKATLTADKSSNTAYMQLNSLTSEDSAVYCCARSAMISTGNWYFDYWGQGTTLTVSS
VL: B4 VL with H33D, R38K, Y71S, F72L, A82T, N91T, S92F, H97F, G99S
notes: Mouse monoclonal antibody from hybridoma; also called m1712
B8: 抗ヒトCD20マウスモノクローナル抗体 1k1402 (antibody, V domains shown)
VH: QVQLQQPGAELVKPGASVKMSCKASGFTFTSYNMHWVKQTPGQGLEWIGGIYPGNGDTSYNQKFKGKATLTADKSSSTAYMQLSSLTSEDSAVYYCARFYYYGSMGAMDYWGQGTSVTVSS
VL: B4 VL with R38K, Y71S, F72L, S75T, N91T, S92F, H97F, G99A, I105L
notes: Mouse monoclonal antibody from hybridoma; also called m1402
B9: 抗ヒトCD20マウスモノクローナル抗体 1k1782 (antibody, V domains shown)
VH: QVQLQQSGAELAKPGASVKMSCKASGYTFTSYWMHWVKQRPGQGLEWIGYITPSTGYTDYNKKFKDKATLTADRSSSTAYMHLSSLTSEDSAVYYCARSGPYFDVWGAGTTVTVSS
VL: DILLTQSPAILFVSPGERVSLSCRASQNIGTSIHWYQQRTNGSPRLLIKYASESFSGIPSRFSGSGSGTDFTLSINSVESEDIADYYCQQSNSWPFTFGSGTKLEIK
notes: Mouse monoclonal antibody from hybridoma; also called m1782
B10: 抗ヒトCD20マウスモノクローナル抗体 1K1228 (antibody, V domains shown)
VH: QVQLQQPGAELVKPGASVKVSCKASGFTFTSYNLHWVKQTPGQGLVWIGAIYPGNGDTSYNQKFRGKATLTADISSSTAYMQLSSLTSEDSAVYYCARYYYGYDAMDYWGQGTSVTVSS
VL: EIILTQSPTTMAASPGEKITITCSASSSISSYYLRWYQQKPGFSPKVLIYRTSNLASGVPARFSGSGSGTSYSLTIGTMEAEDVATYYCQQGNTVPLTFGSGTKLEIK
notes: Mouse monoclonal antibody from hybridoma; also called m1228
B11: ヒト化抗CD20モノクローナル抗体 hz1791-ss (antibody, V domains shown)
VH: B1 VH with K38R, D62Q, D63G, K65T, A76V, M91T
VL: B2 VL
notes: also called ss; hz1791-ss32

The binders below were run against T1, ヒトCD20抗原 (assay: Scatchard analysis, Raji cells, FITC-labelled secondary antibody fluorescence).

Kd | Binder
< 9.5 nM | B1
13 nM and 9.5 nM | B2
< 9.5 nM | B3

The binders below were run against T1, ヒトCD20抗原 (assay: cell-based or functional assay).

CDC 傷害活性 (RC−K8細胞) | Binder
~25 % | B4
~10 % | B5
~10 % | B6

These binders were tested against T1, ヒトCD20抗原 (assay: Scatchard analysis, Raji cells).

binding result | Binder
binds | B7
binds | B8
binds | B9
binds | B10
binds | B11
